Experiments:
[1] = target: Polyvalent sialyl Le^a-HSA (Isosep AB); experiment: ELISA on plates coated with sialyl-Lewis^a-HSA, OD 450nm
[2] = target: Polyvalent sialyl Le^a-HSA (Isosep AB); experiment: SPR (Biacore X or 3000), sialyl Le^a-HSA coupled to CM5 chip; minor population
[3] = target: Polyvalent sialyl Le^a-HSA (Isosep AB); experiment: SPR, real-time sialyl Le^a-HSA binding, antigen on CM5 chip
[4] = target: Polyvalent sialyl Le^a-HSA (Isosep AB); experiment: SPR (Biacore X or 3000), sialyl Le^a-HSA coupled to CM5 chip; major population; major population (80%), two-population fit
[5] = target: Polyvalent sialyl Le^a-HSA (Isosep AB); experiment: SPR (Biacore X or 3000), sialyl Le^a-HSA coupled to CM5 chip; minor population; minor population (20%), two-population fit
[6] = target: Polyvalent sialyl Le^a-HSA (Isosep AB); experiment: SPR (Biacore X or 3000), sialyl Le^a-HSA coupled to CM5 chip; major population
[7] = target: Polyvalent sialyl Le^a-HSA (Isosep AB); experiment: ELISA on coated sialyl-Lewis^a-HSA

Sequence of FG129 mAb (mouse FG129/29 IgG1 kappa) (antibody) (heavy): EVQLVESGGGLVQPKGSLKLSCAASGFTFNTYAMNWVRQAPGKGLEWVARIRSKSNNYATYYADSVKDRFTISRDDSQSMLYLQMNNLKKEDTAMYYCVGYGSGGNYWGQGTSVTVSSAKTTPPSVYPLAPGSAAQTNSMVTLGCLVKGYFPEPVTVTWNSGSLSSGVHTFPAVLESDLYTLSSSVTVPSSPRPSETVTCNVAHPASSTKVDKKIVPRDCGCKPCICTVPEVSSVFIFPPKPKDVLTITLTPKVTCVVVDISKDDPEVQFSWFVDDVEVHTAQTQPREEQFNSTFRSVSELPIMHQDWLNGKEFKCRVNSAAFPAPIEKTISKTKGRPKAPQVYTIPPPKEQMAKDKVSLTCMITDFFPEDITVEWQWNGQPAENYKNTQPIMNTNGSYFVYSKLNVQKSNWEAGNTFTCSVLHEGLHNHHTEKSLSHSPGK
Sequence of FG129 mAb (mouse FG129/29 IgG1 kappa) (antibody) (light): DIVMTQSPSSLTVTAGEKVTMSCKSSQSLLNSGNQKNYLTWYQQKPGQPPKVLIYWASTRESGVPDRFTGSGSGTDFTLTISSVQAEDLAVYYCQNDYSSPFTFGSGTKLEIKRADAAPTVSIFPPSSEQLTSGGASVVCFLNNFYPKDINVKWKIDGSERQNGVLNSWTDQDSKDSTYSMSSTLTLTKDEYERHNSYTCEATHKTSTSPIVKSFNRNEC

| EC50 [1] | Kd [2] | kon [2] | Kd [3] | koff [3] | kon [3] | Kd [4] | koff [5] | koff [6] | kon [6] | EC50 [7] | Substance |
| --- | --- | --- | --- | --- | --- | --- | --- | --- | --- | --- | --- |
| 0.186 nM | – | – | – | – | – | – | – | – | – | – | CA19.9 (anti-sialyl lewis a Mab) (antibody) |
| 0.287 nM | 0.00014 nM | 88500 M⁻¹ s⁻¹ | 0.2 nM | 0.00011 s⁻¹ | 620000 M⁻¹ s⁻¹ | 130 nM | 1.35e-08 s⁻¹ | 0.00257 s⁻¹ | 19700 M⁻¹ s⁻¹ | 0.1 nM | FG129 mAb (mouse FG129/29 IgG1 kappa) (antibody) |
